Tests used:
[1] = biological target: T1, biotin-tagged HLA-A*03:01 monomers (immunAware) (human, biotin tag); assay: flow cytometry bead assay: biotinylated HLA-A*03:01 monomer folded with peptide, captured on streptavidin beads, detected with anti-β2-microglobulin BBM.1; 1.2 nM complex (data not shown)
T1 construct: Bought monomers folded around the test peptide; also called HLA-A3; A3

HLA-A*02:01 = biological target: T2, HLA-A*02:01 (human); assay: experimental HLA-A2 peptide binding assay, format not described (data not shown)
T2 construct: also called HLA-A2; A2

| Binder | binding result [1] | binding result (HLA-A*02:01) |
| --- | --- | --- |
| RLKPSLVGK [SCG5-009193-201] | binds | – |
| YLQGQRLDNV [SCG5186-195] | – | binds |
| FLSGAVNRL (also called SCG-009186-194) [SCG5-009186-194] | – | binds |

From patent US20210070819A1 (INSERM INSTITUT NATIONAL DE LA SANT ET DE LA RECHERCHE M …, published 2021)
